Reference: patent publication US20110217317A1 (published 2011)
Residue numbers refer to the chain shown, from its start.

Target: T1, Rhesus D antigen (human, UniProt Q02161 2-417)
T1 construct: whole, on cells; Presented on RhD-positive erythrocytes in all assays; also called RhD; RhD antigen
T1 sequence (looked up): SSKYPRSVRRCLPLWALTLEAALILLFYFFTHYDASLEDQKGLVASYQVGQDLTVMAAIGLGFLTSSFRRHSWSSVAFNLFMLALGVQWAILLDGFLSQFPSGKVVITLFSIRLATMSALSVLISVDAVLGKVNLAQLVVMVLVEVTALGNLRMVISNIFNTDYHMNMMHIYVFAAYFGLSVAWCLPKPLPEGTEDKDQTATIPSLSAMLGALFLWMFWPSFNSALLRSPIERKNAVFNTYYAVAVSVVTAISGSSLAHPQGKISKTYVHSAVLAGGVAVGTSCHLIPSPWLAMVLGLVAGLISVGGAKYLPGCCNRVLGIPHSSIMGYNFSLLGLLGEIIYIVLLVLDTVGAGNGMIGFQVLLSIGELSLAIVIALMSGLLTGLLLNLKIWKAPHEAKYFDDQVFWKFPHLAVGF
Experiment: Fab screening on red blood cells (agglutination/FACS)

B1: RhD306.223E11 (Fab, V domains shown)
VH: QVQLVESGGGVVQPGRSLRLSCAASGFTFSSYGMHWVRQAPGKGLEWVAVIWYDGSNKYYADSVKGRFTISRDNSKNTLYLQMNTLRDDDTAVYYCAREGTLYSSSWYRRYYYYGMDAWGQGTTVTVSS
VL: EIVLTQSPGTLSLSPGERVTLSCRPSRYIASDYLAWYQLRPGQAPKLLIYGASSRATGIPDRFSGVGSPTDFTLTISRLEPEDFAMYYCHYSGGSPPYPFGQGTRLDIKR
notes: Tested as Fab (periplasmic extract)
binding result: binds

B2: RhD189.181E07 (Fab, V domains shown)
VH: QVQLVESGGGVVQPGRSLRLSCAASGFTFSSYGMHWVRQAPGKGLEWVAVIWYDGSNKYYADSVKGRFTISRDNSKNTLYLQMNSLRAEDTAVYYCARDMVTMVRGAYRNYYYYGMDVWGKGTTVTVSS
VL: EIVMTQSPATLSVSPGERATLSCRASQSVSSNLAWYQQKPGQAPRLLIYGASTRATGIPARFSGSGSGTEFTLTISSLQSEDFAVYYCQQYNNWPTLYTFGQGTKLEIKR
notes: as for B1
binding result: binds

B3: RhD317.144A02 (Fab, V domains shown)
VH: QVQLQESGPGLVKPSGTLSLTCAVSGGSIRGSNWWSWVRQPPGKGLEWIGEIHHGGSTNYNPSLKSRVTISVDKSKNRFSLKLSSVTAADTAVYYCARGTSYYDSSGYSFRGLVAFDIWGQGTMVTVSS
VL: EIVLTQSPGTLSLSPGERATLSCRASQSVSSAFLAWYQQKPGQAPRLLIYGASSRATGIPDRFSGSGSGTDFTLTISRLEPEDFAVYYCQQYGSFSITFGQGTRLEIKR
notes: as for B1
binding result: binds

B4: RhD163.119A02 (Fab, V domains shown)
VH: QVQLQESGPGLVKPSETLSLTCTVSGGSISSYYWSWVRQPPGKGLEWIGYIYYSGSTNYNPSLKSRVTIALDTSKNQFSLKLRSVTAADTAVYFCTRDWRQYGSAIRGSRYYYGMDVWGQGTTVTVSS
VL: EIVLTQSPGTLSLSPGERATLSCRASQNPRRNFLAWYQQKPGQAPRLLIYAASTRATGIPDRFSGSGSGTDFTLTIDRLEPEDSAVYYCQVYGSSPLYTFGQGTKVEMKR
notes: as for B1
binding result: binds

B5: RhD304.164B06 (Fab, V domains shown)
VH: QVQLVQSGGGVVQPGRSLRLSCAASGFTFSSYGMHWVRQAPGKGLEWVAVIWYDGSNKYYADSVKGRFTISRDNSKNTLYLQMNSLRAEDTAVYYCARETVVVAAKIRNHYYYAMDVWGQGTTVTVSS
VL: DIQMTQSPSSLSASLGGTVTLTCRSSQFISRYLNWYQQHPGKVPRLLISGASRLQRGVPSRFTGGGSGTDFTLTIKNVQPDDIATYFCQHSYRSGRAFGQGTTVEVKR
notes: as for B1
binding result: binds

B6: RhD319.187A11 (Fab, V domains shown)
VH: QVQLVESGGGVVQPGRSLRLSCAASGFTFSTYGMHWVRQAPGKGLEWVAVIWYDGSNKNYADSVKGRFTISRDNSKNTLYLQMNSLRAEDTAVYYCARDLQGYRSSWYRMYYYYGMDVWGQGTTVTVSS
VL: QTVVTQEPSLTVSPGGTVTLTCASSTGAVTSGYYPNWFQQKPGQAPRALIYSTSNKHSWTPARFSGSLLGGKAALTLSGVQPEDEAEYYCLLYYGGAQRWVFGGGTILTVLG
notes: as for B1
binding result: binds

B7: RhD323.229B07 (Fab, V domains shown)
VH: B2 VH with M100W, M103R, V104S, R105S, G106N, A107W, K121Q
VL: DIQMTQSPSSLSASVGDRVTITCRASQSISSYLNWYQQKPGKAPKLLIYAASTLQSGVPSRFSGSGSGTDFTLTISSLQPEDFATYYCQQYYRTPTWTFGQGTKVEIKR
notes: as for B1
binding result: binds

B8: RhD305.181E06 (Fab, V domains shown)
VH: QVQLVESGGGVVQPGRSLRLSCAASGFTFSSYGMHWVRQAPGKGLEWVAGIWYDGSNKYYADSVKGRFTISRDNSRNTMYLQMNSLRAEDTAVYYCAREQGGYSSSWYRRYYYYNMDLWGQGTTVTVSS
VL: EIVLTQSPGSLSLSPGERATLSCRASQSVSSSYLAWYQQKPGQAPRLLIYGPSSRATGIPDRFSGSGSGTDFTLTISRLEPEDFAVYYCQHFGNSRGTFGQGTKVEIRR
notes: as for B1
binding result: binds

B9: RhD162.119G12 (Fab, V domains shown)
VH: QVQLVESGGGLVKPGGSLRLSCAASGFGFSAYSMNWVRQAPGKGLEWVSSITSTTTYYADSVKGRFSISRDNAKSTLYLRMNSLRAEDTAVYYCVREIAFRGSTYSRWSYYFDFWGQGTLVTVSS
VL: DIQLTQSPSSVSASVGDSVTITCRASQAVSGWVAWYQQKPGKAPKLLIFGLSNLEDGVPSRFSGSGSATDFTLTITGLQPEDLATYYCLQANRFPLSFGGGTRVEIKR
notes: as for B1
binding result: binds

B10: RhD324.231F07 (Fab, V domains shown)
VH: EVQLVESGGGLVQPGRSLRLSCVASGFTFSSYWMHWVRQVPGKGLVWVSRINVDGKSTSYADSVKGRFTISRDNAKNTLYLQMNSLRAEDTAVYYCARDPRRFLEWARYGMDVWGRGTTVTVSS
VL: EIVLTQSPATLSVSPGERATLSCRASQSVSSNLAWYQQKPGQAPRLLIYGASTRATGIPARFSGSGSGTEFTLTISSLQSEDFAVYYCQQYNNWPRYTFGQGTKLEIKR
notes: as for B1
binding result: binds

B11: RhD302.160B10 (Fab, V domains shown)
VH: QVQLVESGGGVVQPGRSLRLSCAASGFTFSSYGMHWVRQAPGKGLEWVAFISYDGSNKYYADSVKGRFTISRDNSKNTLSLQMNSLRAEDTAVYYCAKEHGYYRSSWYRNYYYYGMDVWGQGTTVTVSS
VL: DIQLTQSPSSLSASVGDRVTITCRASQSISSYLNWYKQRPGKAPKLLIYAASTLQSGVPSRFSGSGSGTDFALTISSLQAEDFATYYCQQTYSTLWTFGQGTKVEITR
notes: as for B1
binding result: binds

B12: RhD303.160B11 (Fab, V domains shown)
VH: B11 VH with G15E, F50V, S80Y, E99D, H100E, G101V, Y102G, R104S, N110R, G115A
VL: EIVLTQSPGTLSLSPGETATLSCRASQSVSDRDLAWYQQKSGQSPRLLMYGGSTRAPGIPVRFSGSGSGTEFTLTISSLQSEDFAIYYCQHYHDWPPTFGQGTRLEIKR
notes: as for B1
binding result: binds

B13: RhD307.230E11 (Fab, V domains shown)
VH: QVQLVETGGGVVQPGRSLRLSCAASGFTFSSYGMHWVRQAPGKGLEWVAGIWYDGSNKYYGDSVKGRFTISRDNSRNTLYLHMNSLRADDTAVYYCAREHGGSRSGWYTLRLAYYFDYWGQGTLVTVSS
VL: DIQLTQSPSSLSASVGDRVTITCRASQYINVYLNWYQHKAGRAPKLLIYAASNLQSGVPPRFIGSGSGTDFTLTISSLQSEDFATYYCLQSFTVPRTFGPGTKVDVKR
notes: as for B1
binding result: binds

B14: RhD321.187G08 (Fab, V domains shown)
VH: EVQLVESGGGLVKPGGSLRLSCAASGFTFRSYSMNWVRQAPGKGLEWVSSIGSSSIYTYSADSVKGRFTISRDNAKNSLYLQMNSLRAEDTAVYYCARGEPLNYDYIWGRSRLTIHWGQGTLVTVSS
VL: LNFMLTQPHSVSESPGKTVTISCTRSSGSIASNYMQWYQQRPGSSPTTVIYEDNRRPSGVPDRFSGSIDSSSNSASLTISGLKTEDEADYYCQSYDSNNWVFGGGTKLTVLG
notes: as for B1
binding result: binds
